Target: T1, IL-17AA homodimer (human, UniProt Q16552 24-155)
T1 construct: also called IL-17A homodimer
T1 sequence: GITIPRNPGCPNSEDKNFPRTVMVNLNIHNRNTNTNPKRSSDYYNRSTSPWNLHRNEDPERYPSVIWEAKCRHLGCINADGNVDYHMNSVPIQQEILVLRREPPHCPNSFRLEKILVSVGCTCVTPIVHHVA
Assay: ELISA, plate coated with IL-17AA; reference of the relative-potency calculation

binding result: binds
B1: anti-IL-17A/F antibody MCAF5352A, Reference Material (composition comprising 2% of the glycosylation variant) (antibody, human IgG1, kappa, V domains shown)
VH: EVQLVESGGGLVQPGRSLRLSCAASGFTFDDYAMHWVRQAPGKGLEWVSGINWSSGGIGYADSVKGRFTISRDNAKNSLYLQMNSLRAEDTALYYCARDIGGFGEFYWNFGLWGRGTLVTVSS
VL: not shown
notes: Produced in CHO cells; Predominantly the main species, which is not glycosylated in the variable region, with about 2% Peak 1; also called antibody standard; sample with 2% glycosylation variants
